Target: concanavalin A
Assay: SPR

Row | Kd | Substance
1 | 2.5 µM | Man3GlcNAc2-RNase (glycoprotein 3) (from UniProt P61823 27-150) (natural protein)
2 | 1.2 µM | bovine ribonuclease B (native, carrying Man5-9 N-glycans) (from UniProt P61823 27-150) (natural protein)
3 | 2.4 µM | monofluoro-Man3GlcNAc2 glycoform of RNase (glycoprotein 2) (from UniProt P61823 27-150) (natural protein)

— PMC3722283
